Results from patent US20170112760.

Target: T1, RALA peptide
T1 chain: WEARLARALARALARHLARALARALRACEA

B1: proteinase K (protein)
chain: AAQTNAPWGLARISSTSPGTSTYYYDESAGQGSCVYVIDTGIEASHPEFEGRAQMVKTYYYSSRDGNGHGTHCAGTVGSRTYGVAKKTQLFGVKVLDDNGSGQYSTIIAGMDFVASDKNNRNCPKGVVASLSLGGGYSSSVNSAAARLQSSGVMVAVAAGNNNADARNYSPASEPSVCTVGASDRYDRRSSFSNYGSVLDIFGPGTSILSTWIGGSTRSISGTSMATPHVAGLAAYLMTLGKTTAASACRYIADTANKGDLSNIPFGTVNLLAYNNYQA
release of DNA from RALA/pEGFP-N1 nanoparticles on agarose gel after 30 min with 20% proteinase K (0.1 mg/mL): the RALA peptide is cleaved by proteinase K thus releasing the DNA into solution
